The results in this text go back to the supplement of paper PMC10724198.

± gives the standard deviation of the averaged measurements.

In this series the test system is Saccharomyces cerevisiae. The series can be described thus: protein stability index of tFT-peptide fusion (C-terminal peptide) (PSI (0-1 scale)); higher = more stable (slower turnover). The following applies: temperature: 30 C. As to the method:
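MPS profiling in S. cerevisiae of the yeast C-terminome library: the last 12 aa of each annotated ORF are fused to the C-terminus of a sfGFP-mCherry timer, after a GGGS linker. Cells are FACS-sorted into 8 mCherry/sfGFP bins and deep-sequenced. PSI runs from 0 (unstable) to 1 (stable); wild type and das1Δ backgrounds, two technical replicates each.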

[1] abbreviates: genetic background: das1 deletion.

In turn, NEERINSKIFKS [RCF2 C-terminal 12 aa] returned a protein stability index under setting [1] of 0.716 ± 0.043 and a protein stability index (genetic background: wild type) of 0.69629 ± 0.00022.

For the sequence NENDFNFINWEG [FLO8 C-terminal 12 aa], the protein stability index by setting is: under setting [1], 0.741 ± 0.037; (genetic background: wild type) 0.7071 ± 0.0051.

In the case of NENLSNELQPSL [AME1 C-terminal 12 aa], the protein stability index runs as follows: under setting [1], 0.678 ± 0.009; (genetic background: wild type) 0.759 ± 0.072.

Sequence NEQFDHKFDETL [APL4 C-terminal 12 aa] gave a protein stability index under setting [1] of 0.726 ± 0.015 and a protein stability index (genetic background: wild type) of 0.671 ± 0.01.

With NFEKPCLIQDGK [FMP48 C-terminal 12 aa], the protein stability index reads like this: under setting [1], 0.717 ± 0.051; (genetic background: wild type) 0.706 ± 0.033.

Consider NFTIHRPLNNGR [YDL062W C-terminal 12 aa], for which the protein stability index runs as follows: under setting [1], 0.731 ± 0.044; (genetic background: wild type) 0.734 ± 0.027.

For NFTTNEYFIHTS [YNL226W C-terminal 12 aa], the protein stability index was 0.7352 ± 0.0013 under setting [1] and 0.737 ± 0.018 (genetic background: wild type).

In the case of NGEIMTCWEWKE [HEH2 C-terminal 12 aa], the protein stability index was found to be 0.691 ± 0.034 under setting [1] and 0.686 ± 0.019 (genetic background: wild type).

On to NGINNSSATYKI [ULA1 C-terminal 12 aa], for which the protein stability index runs as follows: under setting [1], 0.7027 ± 0.0063; (genetic background: wild type) 0.71 ± 0.038.

Take NGLWEQEKTEKR [YKR041W C-terminal 12 aa]: the protein stability index is, setting by setting: under setting [1], 0.716 ± 0.025; (genetic background: wild type) 0.733 ± 0.061.

For the sequence NGNNVASLNTKK [TAF12 C-terminal 12 aa], the protein stability index reads like this: under setting [1], 0.6865 ± 0.0016; (genetic background: wild type) 0.664 ± 0.011.

For the sequence NGYFGYAPGHYP [OPT2 C-terminal 12 aa], the protein stability index by setting is: under setting [1], 0.6844 ± 0.0056; (genetic background: wild type) 0.708 ± 0.031.

For the sequence NILPMTYLLKKK [DPI34 C-terminal 12 aa], the protein stability index was found to be 0.697 ± 0.049 under setting [1] and 0.6405 ± 0.0054 (genetic background: wild type).

Take NILVIVYELLLG [YOS1 C-terminal 12 aa]: the protein stability index is, setting by setting: under setting [1], 0.215 ± 0.023; (genetic background: wild type) 0.203 ± 0.013.

As to NINGTTAAVDVN [PAP1 C-terminal 12 aa], the protein stability index is, setting by setting: under setting [1], 0.661 ± 0.0093; (genetic background: wild type) 0.658 ± 0.01.

The sequence NKTNNKKKHGKK [CLU1 C-terminal 12 aa] gave a protein stability index under setting [1] of 0.698 ± 0.044 and a protein stability index (genetic background: wild type) of 0.713 ± 0.024.

Consider NLEFETEHNVTN [NDC80 C-terminal 12 aa], for which the protein stability index amounted to 0.677 ± 0.012 under setting [1] and 0.708 ± 0.013 (genetic background: wild type).

With NLELGGLNMDFL [PGD1 C-terminal 12 aa], the protein stability index reads like this: under setting [1], 0.7171 ± 0.0022; (genetic background: wild type) 0.708 ± 0.047.

In the case of NLLRFIVGVDVL [YDR426C C-terminal 12 aa], the protein stability index is 0.639 ± 0.0092 under setting [1] and 0.638 ± 0.0082 (genetic background: wild type).

Turning to NNDDSANDLIDR [CCH1 C-terminal 12 aa], the protein stability index was determined as 0.649 ± 0.013 under setting [1] and 0.681 ± 0.02 (genetic background: wild type).

In the case of NNYNLWFRLSSS [ECL1 C-terminal 12 aa], the protein stability index by setting is: under setting [1], 0.702 ± 0.027; (genetic background: wild type) 0.668 ± 0.055.

NPADYLLEFGSG [RTG3 C-terminal 12 aa]: the protein stability index came out at 0.7103 ± 0.0023 under setting [1] and 0.72 ± 0.029 (genetic background: wild type).

As to NPFEYENFINIE [YOR263C C-terminal 12 aa], the protein stability index amounted to 0.7418 ± 0.0062 under setting [1] and 0.721 ± 0.052 (genetic background: wild type).

NPVGVPNDDHHH [COX4 C-terminal 12 aa]: the protein stability index reads like this: under setting [1], 0.724 ± 0.0031; (genetic background: wild type) 0.668 ± 0.022.

For the sequence NQFSQPPSNVEF [SCD6 C-terminal 12 aa], the protein stability index turned out to be 0.684 ± 0.025 under setting [1] and 0.697 ± 0.019 (genetic background: wild type).

On to NQYANNLNLIDM [YAP1801 C-terminal 12 aa], for which the protein stability index is, setting by setting: under setting [1], 0.694 ± 0.026; (genetic background: wild type) 0.672 ± 0.029.

NSDRLSPMEIYN [SPO14 C-terminal 12 aa]: the protein stability index was determined as 0.7118 ± 0.007 under setting [1] and 0.6799 ± 0.0022 (genetic background: wild type).

On to NSGSAATDSPFN [STS1 C-terminal 12 aa], for which the protein stability index is, setting by setting: under setting [1], 0.727 ± 0.013; (genetic background: wild type) 0.674 ± 0.034.
